Experiments:
CD73 in human serum = target: T1, CD73 in human serum (human, UniProt P21589 27-574); assay: cell-based or functional assay
T1 sequence: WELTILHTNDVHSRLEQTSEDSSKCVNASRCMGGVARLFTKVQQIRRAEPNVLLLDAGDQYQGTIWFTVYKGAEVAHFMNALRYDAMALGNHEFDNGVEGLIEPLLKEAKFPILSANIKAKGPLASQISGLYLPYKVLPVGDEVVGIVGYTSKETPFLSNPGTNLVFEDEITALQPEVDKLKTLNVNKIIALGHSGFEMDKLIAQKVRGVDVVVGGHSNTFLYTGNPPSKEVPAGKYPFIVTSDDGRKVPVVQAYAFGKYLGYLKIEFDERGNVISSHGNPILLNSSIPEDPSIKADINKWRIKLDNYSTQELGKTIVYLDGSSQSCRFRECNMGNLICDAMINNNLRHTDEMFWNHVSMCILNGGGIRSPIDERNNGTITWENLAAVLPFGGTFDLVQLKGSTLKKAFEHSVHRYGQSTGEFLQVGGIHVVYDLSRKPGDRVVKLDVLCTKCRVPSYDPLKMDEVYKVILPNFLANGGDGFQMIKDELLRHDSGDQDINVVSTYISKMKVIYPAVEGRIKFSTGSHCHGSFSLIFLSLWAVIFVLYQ

[1] = target: T2, human CD73 expressed on cells (human, UniProt P21589 27-549); assay: cell-based or functional assay
T2 sequence: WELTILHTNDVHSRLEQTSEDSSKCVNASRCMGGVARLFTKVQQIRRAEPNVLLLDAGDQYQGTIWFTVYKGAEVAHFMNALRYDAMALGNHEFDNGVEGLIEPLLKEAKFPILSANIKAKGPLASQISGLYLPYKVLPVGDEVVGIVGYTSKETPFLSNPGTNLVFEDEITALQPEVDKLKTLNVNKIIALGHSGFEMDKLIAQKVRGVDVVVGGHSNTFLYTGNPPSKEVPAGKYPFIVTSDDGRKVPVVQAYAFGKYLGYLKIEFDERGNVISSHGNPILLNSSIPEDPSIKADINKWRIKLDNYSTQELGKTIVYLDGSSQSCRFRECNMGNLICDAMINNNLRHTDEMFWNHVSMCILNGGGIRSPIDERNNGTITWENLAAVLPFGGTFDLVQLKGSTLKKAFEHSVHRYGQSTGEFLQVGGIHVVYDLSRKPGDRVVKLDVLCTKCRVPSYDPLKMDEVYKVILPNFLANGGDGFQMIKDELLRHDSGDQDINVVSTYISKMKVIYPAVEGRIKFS

B1: 2H4+2L1 anti-CD73 antibody (antibody, human IgG1, kappa, V domains shown)
VH: QIQLVQSGAEVKKPGASVKVSCKASGYTFASYNMYWVRQAPGQRLEWIGYIDPYNGGSSYNQKFKGRVTLTRDKSASTAYMELSSLRSEDTAVYYCARGYNNYKAWFAYWGQGTLVTVSS
VL: DIQMTQSPSSLSASVGDRVTITCKASQSVTNDVAWYQQKPGKAPKLLIYYASNRYTGVPSRFSGSGYGTDFTFTISSLQPEDIATYYCQQDYSSLTFGQGTKLEIKR
enzymatic inhibition, in vitro assay on human serum (IC50) (CD73 in human serum): 0.0123 mg/L
enzymatic inhibition, in vitro assay on A375 tumor cells (IC50) [1]: 0.034 mg/L
enzymatic inhibition, in vitro assay on MDA-MB231 tumor cells (IC50) [1]: 0.127 mg/L
reversion of AMP inhibited T cell proliferation on CD4+ T cells (IC50) [1]: 0.0081 mg/L
reversion of AMP inhibited T cell proliferation on CD8+ T cells (IC50) [1]: 0.0077 mg/L
